# Measured values as given in article PMC1088972, “Engineering a Dimeric Caspase-9: A Re-evaluation of the Induced Proximity Model for Caspase Activation” (PLoS Biology, 2005).
# B1: engineered (dimeric) caspase-9 (Δ139, residues 140-416) (domain or fragment, UniProt P55211 140-416, looked up)
# chain: GALESLRGNADLAYILSMEPCGHCLIINNVNFCRESGLRTRTGSNIDCEKLRRRFSSLHFMVEVKGDLTAKKMVLALLELAQQDHGALDCCVVVILSHGCQASHLQFPGAVYGTDGCPVSVEKIVNIFNGTSCPSLGGKPKLFFIQACGGEQKDHGFEVASTSPEDESPGSNPEPDATPFQEGLRTFDQLDAISSLPTPSDIFVSYSTFPGFVSWRDPKSGSWYVETLDDIFEQWAHSEDLQSLLLRVANAVSVKGIYKQMPCIVSMLRKKLFFKTS
# notes: caspase-9, residues 140-416; prodomain and flexible linker removed; five residues of strand beta6 replaced by those of caspase-3 (Cys264-Ile-Val-Ser-Met268); Predicted dimer mass printed as 62,746 Da; written as one chain; also called engineered caspase-9 (Δ139); Δ139 dimeric caspase-9; source: E. coli BL21(DE3), vector pET-21b, purified (Ni-NTA, anion exchange Source-15Q, gel filtration …)
# B2: dimeric caspase-9 (residues 140-416, C287S) (domain or fragment, UniProt P55211 140-416, looked up)
# chain: GALESLRGNADLAYILSMEPCGHCLIINNVNFCRESGLRTRTGSNIDCEKLRRRFSSLHFMVEVKGDLTAKKMVLALLELAQQDHGALDCCVVVILSHGCQASHLQFPGAVYGTDGCPVSVEKIVNIFNGTSCPSLGGKPKLFFIQASGGEQKDHGFEVASTSPEDESPGSNPEPDATPFQEGLRTFDQLDAISSLPTPSDIFVSYSTFPGFVSWRDPKSGSWYVETLDDIFEQWAHSEDLQSLLLRVANAVSVKGIYKQMPCIVSMLRKKLFFKTS
# notes: caspase-9, residues 140-416; five residues of strand beta6 replaced by those of caspase-3; catalytic Cys287 mutated to Ser; Crystallised form; the model holds residues 140-288 and 335-416 (chains A, C) and 140-289 and 337-416 (chains B, D); also called dimeric caspase-9 (C287S); source: E. coli BL21(DE3), vector pET-21b, purified (Ni-NTA, anion exchange Source-15Q, gel filtration Superdex-200)
# What was measured:
# [1] = biological target: the molecule itself; assay: SEC; gel filtration of WT and engineered caspase-9 (Δ139, residues 140-416); unpublished data
# [2] = biological target: the molecule itself; assay: crystal structure; hanging-drop vapor diffusion, 100 mM MES pH 6.0, 5% PEG 5000 monomethyl ether, 3% tacsimate; space group C2; two molecules of the dimer in the asymmetric unit; molecular replacement
Protein,stoichiometry N [1],binding result [2]
B1,2,
B2,,binds
